According to US20250171562A1:

B1: NIgG4D1A1(RS) (Fc fusion)
chain 1: DVQLQESGGGLVQAGGSLRLSCAASGLTFSRCDMGWFRQAPGKEREFVARISANGASTHYADFVKGRFTISRDNAKNTVYLQMNYLKPEDTAVYICAAARVPVTWQLYDYWGQGTQVTVSRSGPPCPPCPAPEFLGGPSVFLFPPKPKDTLMISRTPEVTCVVVDVSQEDPEVQFNWYVDGVEVHNAKTKPREEQFNSTYRVVSVLTVLHQDWLNGKEYKCKVSNKGLPSSIEKTISKAKGQPREPQVYTLPPCQEEMTKNQVSLWCLVKGFYPSDIAVEWESNGQPENNYKTTPPVLDSDGSFFLYSRLTVDKSRWQEGNVFSCSVMHEALHNHYTQKSLSLSLGK
chain 2: EVQLLESGGGLVQPGGSLRLSCAASGFTFGNYDMAWVRQAPGKRPEWVSSIDTGGDITHYADSVKGRFTISRDNAKNTLYLQMNSLRPEDTAVYWCATDEEYALGPNEFDYYGQGTLVTVSSRSGPPCPPCPAPEFLGGPSVFLFPPKPKDTLMISRTPEVTCVVVDVSQEDPEVQFNWYVDGVEVHNAKTKPREEQFNSTYRVVSVLTVLHQDWLNGKEYKCKVSNKGLPSSIEKTISKAKGQPREPQVCTLPPSQEEMTKNQVSLSCAVKGFYPSDIAVEWESNGQPENNYKTTPPVLDSDGSFFLVSRLTVDKSRWQEGNVFSCSVMHEALHNHYTQKSLSLSLGK
B2: CIgG4B2A1(G4S)2 (Fc fusion)
chain 1: GPPCPPCPAPEFLGGPSVFLFPPKPKDTLMISRTPEVTCVVVDVSQEDPEVQFNWYVDGVEVHNAKTKPREEQFNSTYRVVSVLTVLHQDWLNGKEYKCKVSNKGLPSSIEKTISKAKGQPREPQVYTLPPCQEEMTKNQVSLWCLVKGFYPSDIAVEWESNGQPENNYKTTPPVLDSDGSFFLYSRLTVDKSRWQEGNVFSCSVMHEALHNHYTQKSLSLSLGKGGGGSGGGGSQVQLVESGGGLVQAGGSLRLSCAVFGSTFSNNVADWYRQAPGKQRELVARISASGATREYGDSVKGRFTISRDDAKNTMYLQMNNLKPEDTAVYRCHKIEWEDLSRKDYWGQGTQVTVS
chain 2: GPPCPPCPAPEFLGGPSVFLFPPKPKDTLMISRTPEVTCVVVDVSQEDPEVQFNWYVDGVEVHNAKTKPREEQFNSTYRVVSVLTVLHQDWLNGKEYKCKVSNKGLPSSIEKTISKAKGQPREPQVCTLPPSQEEMTKNQVSLSCAVKGFYPSDIAVEWESNGQPENNYKTTPPVLDSDGSFFLVSRLTVDKSRWQEGNVFSCSVMHEALHNHYTQKSLSLSLGKGGGGSGGGGSEVQLLESGGGLVQPGGSLRLSCAASGFTFGNYDMAWVRQAPGKRPEWVSSIDTGGDITHYADSVKGRFTISRDNAKNTLYLQMNSLRPEDTAVYWCATDEEYALGPNEFDYYGQGTLVTVSS
B3: NIgG4D1A1(G4S)2 (Fc fusion)
chain 1: DVQLQESGGGLVQAGGSLRLSCAASGLTFSRCDMGWFRQAPGKEREFVARISANGASTHYADFVKGRFTISRDNAKNTVYLQMNYLKPEDTAVYICAAARVPVTWQLYDYWGQGTQVTVSGGGGSGGGGSGPPCPPCPAPEFLGGPSVFLFPPKPKDTLMISRTPEVTCVVVDVSQEDPEVQFNWYVDGVEVHNAKTKPREEQFNSTYRVVSVLTVLHQDWLNGKEYKCKVSNKGLPSSIEKTISKAKGQPREPQVYTLPPCQEEMTKNQVSLWCLVKGFYPSDIAVEWESNGQPENNYKTTPPVLDSDGSFFLYSRLTVDKSRWQEGNVFSCSVMHEALHNHYTQKSLSLSLGK
chain 2: EVQLLESGGGLVQPGGSLRLSCAASGFTFGNYDMAWVRQAPGKRPEWVSSIDTGGDITHYADSVKGRFTISRDNAKNTLYLQMNSLRPEDTAVYWCATDEEYALGPNEFDYYGQGTLVTVSSGGGGSGGGGSGPPCPPCPAPEFLGGPSVFLFPPKPKDTLMISRTPEVTCVVVDVSQEDPEVQFNWYVDGVEVHNAKTKPREEQFNSTYRVVSVLTVLHQDWLNGKEYKCKVSNKGLPSSIEKTISKAKGQPREPQVCTLPPSQEEMTKNQVSLSCAVKGFYPSDIAVEWESNGQPENNYKTTPPVLDSDGSFFLVSRLTVDKSRWQEGNVFSCSVMHEALHNHYTQKSLSLSLGK
B4: CIgG4B2A1(G4S)3 (Fc fusion)
chain 1: GPPCPPCPAPEFLGGPSVFLFPPKPKDTLMISRTPEVTCVVVDVSQEDPEVQFNWYVDGVEVHNAKTKPREEQFNSTYRVVSVLTVLHQDWLNGKEYKCKVSNKGLPSSIEKTISKAKGQPREPQVYTLPPCQEEMTKNQVSLWCLVKGFYPSDIAVEWESNGQPENNYKTTPPVLDSDGSFFLYSRLTVDKSRWQEGNVFSCSVMHEALHNHYTQKSLSLSLGKGGGGSGGGGSGGGGSQVQLVESGGGLVQAGGSLRLSCAVFGSTFSNNVADWYRQAPGKQRELVARISASGATREYGDSVKGRFTISRDDAKNTMYLQMNNLKPEDTAVYRCHKIEWEDLSRKDYWGQGTQVTVS
chain 2: GPPCPPCPAPEFLGGPSVFLFPPKPKDTLMISRTPEVTCVVVDVSQEDPEVQFNWYVDGVEVHNAKTKPREEQFNSTYRVVSVLTVLHQDWLNGKEYKCKVSNKGLPSSIEKTISKAKGQPREPQVCTLPPSQEEMTKNQVSLSCAVKGFYPSDIAVEWESNGQPENNYKTTPPVLDSDGSFFLVSRLTVDKSRWQEGNVFSCSVMHEALHNHYTQKSLSLSLGKGGGGSGGGGSGGGGSEVQLLESGGGLVQPGGSLRLSCAASGFTFGNYDMAWVRQAPGKRPEWVSSIDTGGDITHYADSVKGRFTISRDNAKNTLYLQMNSLRPEDTAVYWCATDEEYALGPNEFDYYGQGTLVTVSS
B5: NIgG4D1A1(G4S)3 (Fc fusion)
chain 1: DVQLQESGGGLVQAGGSLRLSCAASGLTFSRCDMGWFRQAPGKEREFVARISANGASTHYADFVKGRFTISRDNAKNTVYLQMNYLKPEDTAVYICAAARVPVTWQLYDYWGQGTQVTVSGGGGSGGGGSGGGGSGPPCPPCPAPEFLGGPSVFLFPPKPKDTLMISRTPEVTCVVVDVSQEDPEVQFNWYVDGVEVHNAKTKPREEQFNSTYRVVSVLTVLHQDWLNGKEYKCKVSNKGLPSSIEKTISKAKGQPREPQVYTLPPCQEEMTKNQVSLWCLVKGFYPSDIAVEWESNGQPENNYKTTPPVLDSDGSFFLYSRLTVDKSRWQEGNVFSCSVMHEALHNHYTQKSLSLSLGK
chain 2: EVQLLESGGGLVQPGGSLRLSCAASGFTFGNYDMAWVRQAPGKRPEWVSSIDTGGDITHYADSVKGRFTISRDNAKNTLYLQMNSLRPEDTAVYWCATDEEYALGPNEFDYYGQGTLVTVSSGGGGSGGGGSGGGGSGPPCPPCPAPEFLGGPSVFLFPPKPKDTLMISRTPEVTCVVVDVSQEDPEVQFNWYVDGVEVHNAKTKPREEQFNSTYRVVSVLTVLHQDWLNGKEYKCKVSNKGLPSSIEKTISKAKGQPREPQVCTLPPSQEEMTKNQVSLSCAVKGFYPSDIAVEWESNGQPENNYKTTPPVLDSDGSFFLVSRLTVDKSRWQEGNVFSCSVMHEALHNHYTQKSLSLSLGK
B6: CIgG4B2A1(G4S)1 (Fc fusion)
chain 1: GPPCPPCPAPEFLGGPSVFLFPPKPKDTLMISRTPEVTCVVVDVSQEDPEVQFNWYVDGVEVHNAKTKPREEQFNSTYRVVSVLTVLHQDWLNGKEYKCKVSNKGLPSSIEKTISKAKGQPREPQVYTLPPCQEEMTKNQVSLWCLVKGFYPSDIAVEWESNGQPENNYKTTPPVLDSDGSFFLYSRLTVDKSRWQEGNVFSCSVMHEALHNHYTQKSLSLSLGKGGGGSQVQLVESGGGLVQAGGSLRLSCAVFGSTFSNNVADWYRQAPGKQRELVARISASGATREYGDSVKGRFTISRDDAKNTMYLQMNNLKPEDTAVYRCHKIEWEDLSRKDYWGQGTQVTVS
chain 2: GPPCPPCPAPEFLGGPSVFLFPPKPKDTLMISRTPEVTCVVVDVSQEDPEVQFNWYVDGVEVHNAKTKPREEQFNSTYRVVSVLTVLHQDWLNGKEYKCKVSNKGLPSSIEKTISKAKGQPREPQVCTLPPSQEEMTKNQVSLSCAVKGFYPSDIAVEWESNGQPENNYKTTPPVLDSDGSFFLVSRLTVDKSRWQEGNVFSCSVMHEALHNHYTQKSLSLSLGKGGGGSEVQLLESGGGLVQPGGSLRLSCAASGFTFGNYDMAWVRQAPGKRPEWVSSIDTGGDITHYADSVKGRFTISRDNAKNTLYLQMNSLRPEDTAVYWCATDEEYALGPNEFDYYGQGTLVTVSS
B7: NIgG4D1A1(G4S)1 (Fc fusion)
chain 1: DVQLQESGGGLVQAGGSLRLSCAASGLTFSRCDMGWFRQAPGKEREFVARISANGASTHYADFVKGRFTISRDNAKNTVYLQMNYLKPEDTAVYICAAARVPVTWQLYDYWGQGTQVTVSGGGGSGPPCPPCPAPEFLGGPSVFLFPPKPKDTLMISRTPEVTCVVVDVSQEDPEVQFNWYVDGVEVHNAKTKPREEQFNSTYRVVSVLTVLHQDWLNGKEYKCKVSNKGLPSSIEKTISKAKGQPREPQVYTLPPCQEEMTKNQVSLWCLVKGFYPSDIAVEWESNGQPENNYKTTPPVLDSDGSFFLYSRLTVDKSRWQEGNVFSCSVMHEALHNHYTQKSLSLSLGK
chain 2: EVQLLESGGGLVQPGGSLRLSCAASGFTFGNYDMAWVRQAPGKRPEWVSSIDTGGDITHYADSVKGRFTISRDNAKNTLYLQMNSLRPEDTAVYWCATDEEYALGPNEFDYYGQGTLVTVSSGGGGSGPPCPPCPAPEFLGGPSVFLFPPKPKDTLMISRTPEVTCVVVDVSQEDPEVQFNWYVDGVEVHNAKTKPREEQFNSTYRVVSVLTVLHQDWLNGKEYKCKVSNKGLPSSIEKTISKAKGQPREPQVCTLPPSQEEMTKNQVSLSCAVKGFYPSDIAVEWESNGQPENNYKTTPPVLDSDGSFFLVSRLTVDKSRWQEGNVFSCSVMHEALHNHYTQKSLSLSLGK
B8: CIgG4D1A1(RS) (Fc fusion)
chain 1: GPPCPPCPAPEFLGGPSVFLFPPKPKDTLMISRTPEVTCVVVDVSQEDPEVQFNWYVDGVEVHNAKTKPREEQFNSTYRVVSVLTVLHQDWLNGKEYKCKVSNKGLPSSIEKTISKAKGQPREPQVYTLPPCQEEMTKNQVSLWCLVKGFYPSDIAVEWESNGQPENNYKTTPPVLDSDGSFFLYSRLTVDKSRWQEGNVFSCSVMHEALHNHYTQKSLSLSLGKRSDVQLQESGGGLVQAGGSLRLSCAASGLTFSRCDMGWFRQAPGKEREFVARISANGASTHYADFVKGRFTISRDNAKNTVYLQMNYLKPEDTAVYICAAARVPVTWQLYDYWGQGTQVTVS
chain 2: GPPCPPCPAPEFLGGPSVFLFPPKPKDTLMISRTPEVTCVVVDVSQEDPEVQFNWYVDGVEVHNAKTKPREEQFNSTYRVVSVLTVLHQDWLNGKEYKCKVSNKGLPSSIEKTISKAKGQPREPQVCTLPPSQEEMTKNQVSLSCAVKGFYPSDIAVEWESNGQPENNYKTTPPVLDSDGSFFLVSRLTVDKSRWQEGNVFSCSVMHEALHNHYTQKSLSLSLGKRSEVQLLESGGGLVQPGGSLRLSCAASGFTFGNYDMAWVRQAPGKRPEWVSSIDTGGDITHYADSVKGRFTISRDNAKNTLYLQMNSLRPEDTAVYWCATDEEYALGPNEFDYYGQGTLVTVSS

target: mixture of three Der p 2 specific recombinant human IgE clones H10, H12, P4E (human) (UniProt P01854); assay: RBL-SX38 IgE displacement, FACS
Sequence (P01854 other isoform, or with tags, fused parts or gaps): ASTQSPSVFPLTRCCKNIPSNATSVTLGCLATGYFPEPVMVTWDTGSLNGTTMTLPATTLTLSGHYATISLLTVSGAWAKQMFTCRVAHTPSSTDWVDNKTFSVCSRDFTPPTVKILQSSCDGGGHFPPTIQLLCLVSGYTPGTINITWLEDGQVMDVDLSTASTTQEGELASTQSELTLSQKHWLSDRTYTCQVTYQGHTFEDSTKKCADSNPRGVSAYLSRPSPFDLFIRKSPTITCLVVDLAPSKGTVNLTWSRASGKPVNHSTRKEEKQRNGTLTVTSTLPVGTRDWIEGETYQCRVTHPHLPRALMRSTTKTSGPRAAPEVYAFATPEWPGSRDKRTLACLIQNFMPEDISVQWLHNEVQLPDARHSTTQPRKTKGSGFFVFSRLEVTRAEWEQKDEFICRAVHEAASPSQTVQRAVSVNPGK

In order of falling EC50:
1. B6  8.8 nM
2. B5  2 nM
3. B1  1.6 nM
4. B2  1.6 nM
5. B3  1.6 nM
6. B4  1.5 nM
7. B7  1.4 nM

In order of rising Max effect/effect 1 µM:
1. B8  16%
2. B6  93%
3. B1  97%
4. B4  98%
5. B2  99%
6. B5  99%
7. B7  99%
8. B3  100%
